6 sequences from the supplement of paper PMC5998384 can be followed below.

Data set [1] deals with HeLa Kyoto. The data set is described as follows: solubility in G1/S (NP-40 vs SDS abundance) (log2 ratio); higher = more soluble. Particulars: cell cycle stage: G1/S.
Data set [2] concerns HeLa Kyoto. The data set can be described thus: melting temperature (median over replicates), in situ; higher = more thermally stable.
In data set [3] the test system is HeLa Kyoto. The data set can be described thus: solubility change mitosis vs G1/S (difference of NP-40 vs SDS log2 ratios) (log2 ratio difference); higher = more soluble in mitosis.
Data set [4] concerns HeLa Kyoto. The data set is described as follows: thermal stability score vs G1/S (z-score of summed log2 fold changes over temperatures); higher = more thermally stable than in G1/S.
The mark [5] stands for this setting: cell cycle stage: early G1 (4.5 h after nocodazole release).
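Wherever melting temperature (median over replicates), in situ is given: HeLa Kyoto cells synchronized by double thymidine or nocodazole block, proteins quantified by TMT10plex mass spectrometry, three independent biological replicates.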
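Wherever solubility change mitosis vs G1/S (difference of NP-40 vs SDS log2 ratios) is given: synchronized HeLa Kyoto cells (double thymidine block for G1/S, nocodazole release for mitosis), protein amounts in NP-40 versus SDS lysates quantified by mass spectrometry, three biological replicates.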
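Wherever solubility in G1/S (NP-40 vs SDS abundance) is given: HeLa Kyoto cells arrested at G1/S by double thymidine block, proteins quantified by TMT10plex mass spectrometry in mild NP-40 versus SDS extracts, three biological replicates.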
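Wherever thermal stability score vs G1/S (z-score of summed log2 fold changes over temperatures) is given: synchronized HeLa Kyoto cells, proteins quantified by TMT10plex mass spectrometry, three biological replicates, mitosis taken 0.5 h after nocodazole release, G1/S directly after double thymidine block.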

With “MSLAFKIFFPQTLRALSRKELCLFRKHHWRDVRQFSQWSETDLLHGHPLFLRRKPVLSFQGSHLRSRATYLVFLPGLHVGLCSGPCEMAEQRFCVDYAKRGTAGCKKCKEKIVKGVCRIGKVVPNPFSESGGDMKEWYHIKCMFEKLERARATTKKIEDLTELEGWEELEDNEKEQITQHIADLSSKAAGTPKKKAVVQAKLTTTGQVTSPVKGASFVTSTNPRKFSGFSAKPNNSGEAPSSPTPKRSLSSSKCDPRHKDCLLREFRKLCAMVADNPSYNTKTQIIQDFLRKGSAGDGFHGDVYLTVKLLLPGVIKTVYNLNDKQIVKLFSRIFNCNPDDMARDLEQGDVSETIRVFFEQSKSFPPAAKSLLTIQEVDEFLLRLSKLTKEDEQQQALQDIASRCTANDLKCIIRLIKHDLKMNSGAKHVLDALDPNAYEAFKASRNLQDVVERVLHNAQEVEKEPGQRRALSVQASLMTPVQPMLAEACKSVEYAMKKCPNGMFSEIKYDGERVQVHKNGDHFSYFSRSLKPVLPHKVAHFKDYIPQAFPGGHSMILDSEVLLIDNKTGKPLPFGTLGVHKKAAFQDANVCLFVFDCIYFNDVSLMDRPLCERRKFLHDNMVEIPNRIMFSEMKRVTKALDLADMITRVIQEGLEGLVLKDVKGTYEPGKRHWLKVKKDYLNEGAMADTADLVVLGAFYGQGSKGGMMSIFLMGCYDPGSQKWCTVTKCAGGHDDATLARLQNELDMVKISKDPSKIPSWLKVNKIYYPDFIVPDPKKAAVWEITGAEFSKSEAHTADGISIRFPRCTRIRDDKDWKSATNLPQLKELYQLSKEKADFTVVAGDEGSSTTGGSSEENKGPSGSAVSRKAPSKPSASTKKAEGKLSNSNSKDGNMQTAKPSAMKVGEKLATKSSPVKVGEKRKAADETLCQTKVLLDIFTGVRLYLPPSTPDFSRLRRYFVAFDGDLVQEFDMTSATHVLGSRDKNPAAQQVSPEWIWACIRKRRLVAPC [LIG3]”, the “solubility in G1/S (log2)” value in data set [1] is -0.13. In addition, the melting temperature in data set [2] (cell cycle stage: G1/S) is 46.3 °C; in data set [2] (cell cycle stage: mitosis) it was 48.8 °C. In data set [3], the “solubility change mitosis (log2)” value came to 0.0705. The figures for the thermal stability score in data set [4] (setting [5]) and in data set [4] (cell cycle stage: mitosis) were 0.91 and 2.49, respectively.

As to “MSLKNEPRVNTSALQKIAADMSNIIENLDTRELHFEGEEVDYDVSPSDPKIQEVYIPFSAIYNTQGFKEPNIQTYLSGCPIKAQVLEVERFTSTTRVPSINLYTIELTHGEFKWQVKRKFKHFQEFHRELLKYKAFIRIPIPTRRHTFRRQNVREEPREMPSLPRSSENMIREEQFLGRRKQLEDYLTKILKMPMYRNYHATTEFLDISQLSFIHDLGPKGIEGMIMKRSGGHRIPGLNCCGQGRACYRWSKRWLIVKDSFLLYMKPDSGAIAFVLLVDKEFKIKVGKKETETKYGIRIDNLSRTLILKCNSYRHARWWGGAIEEFIQKHGTNFLKDHRFGSYAAIQENALAKWYVNAKGYFEDVANAMEEANEEIFITDWWLSPEIFLKRPVVEGNRWRLDCILKRKAQQGVRIFIMLYKEVELALGINSEYTKRTLMRLHPNIKVMRHPDHVSSTVYLWAHHEKLVIIDQSVAFVGGIDLAYGRWDDNEHRLTDVGSVKRVTSGPSLGSLPPAAMESMESLRLKDKNEPVQNLPIQKSIDDVDSKLKGIGKPRKFSKFSLYKQLHRHHLHDADSISSIDSTSSYFNHYRSHHNLIHGLKPHFKLFHPSSESEQGLTRPHADTGSIRSLQTGVGELHGETRFWHGKDYCNFVFKDWVQLDKPFADFIDRYSTPRMPWHDIASAVHGKAARDVARHFIQRWNFTKIMKSKYRSLSYPFLLPKSQTTAHELRYQVPGSVHANVQLLRSAADWSAGIKYHEESIHAAYVHVIENSRHYIYIENQFFISCADDKVVFNKIGDAIAQRILKAHRENQKYRVYVVIPLLPGFEGDISTGGGNALQAIMHFNYRTMCRGENSILGQLKAELGNQWINYISFCGLRTHAELEGNLVTELIYVHSKLLIADDNTVIIGSANINDRSMLGKRDSEMAVIVQDTETVPSVMDGKEYQAGRFARGLRLQCFRVVLGYLDDPSEDIQDPVSDKFFKEVWVSTAARNATIYDKVFRCLPNDEVHNLIQLRDFINKPVLAKEDPIRAEEELKKIRGFLVQFPFYFLSEESLLPSVGTKEAIVPMEVWT [PLD1]”, in data set [1], the “solubility in G1/S (log2)” value was -0.336. Further, the melting temperature is 51.6 °C in data set [2] (cell cycle stage: G1/S) and 51.7 °C in data set [2] (cell cycle stage: mitosis). Also, in data set [3], the “solubility change mitosis (log2)” value was -0.0809. For the same sequence, the results for the thermal stability score in data set [4] (setting [5]) and in data set [4] (cell cycle stage: mitosis) were -0.632 and -0.457, respectively.

On to “MSLLFSRCNSIVTVKKNKRHMAEVNASPLKHFVTAKKKINGIFEQLGAYIQESATFLEDTYRNAELDPVTTEEQVLDVKGYLSKVRGISEVLARRHMKVAFFGRTSNGKSTVINAMLWDKVLPSGIGHTTNCFLRVEGTDGHEAFLLTEGSEEKRSAKTVNQLAHALHQDKQLHAGSLVSVMWPNSKCPLLKDDLVLMDSPGIDVTTELDSWIDKFCLDADVFVLVANSESTLMQTEKHFFHKVSERLSRPNIFILNNRWDASASEPEYMEEVRRQHMERCTSFLVDELGVVDRSQAGDRIFFVSAKEVLNARIQKAQGMPEGGGALAEGFQVRMFEFQNFERRFEECISQSAVKTKFEQHTVRAKQIAEAVRLIMDSLHMAAREQQVYCEEMREERQDRLKFIDKQLELLAQDYKLRIKQITEEVERQVSTAMAEEIRRLSVLVDDYQMDFHPSPVVLKVYKNELHRHIEEGLGRNMSDRCSTAITNSLQTMQQDMIDGLKPLLPVSVRSQIDMLVPRQCFSLNYDLNCDKLCADFQEDIEFHFSLGWTMLVNRFLGPKNSRRALMGYNDQVQRPIPLTPANPSMPPLPQGSLTQEEFMVSMVTGLASLTSRTSMGILVVGGVVWKAVGWRLIALSFGLYGLLYVYERLTWTTKAKERAFKRQFVEHASEKLQLVISYTGSNCSHQVQQELSGTFAHLCQQVDVTRENLEQEIAAMNKKIEVLDSLQSKAKLLRNKAGWLDSELNMFTHQYLQPSR [MFN2]”, for which the “solubility in G1/S (log2)” value in data set [1] was -0.174. Also, the values for the melting temperature in data set [2] (cell cycle stage: G1/S) and in data set [2] (cell cycle stage: mitosis) were 50.8 °C and 51.3 °C, respectively. Also, in data set [3], the “solubility change mitosis (log2)” value was -0.043. In addition, the results for the thermal stability score in data set [4] (setting [5]) and in data set [4] (cell cycle stage: mitosis) were 1.32 and 0.83, respectively.

As for “MSLLGDPLQALPPSAAPTGPLLAPPAGATLNRLREPLLRRLSELLDQAPEGRGWRRLAELAGSRGRLRLSCLDLEQCSLKVLEPEGSPSLCLLKLMGEKGCTVTELSDFLQAMEHTEVLQLLSPPGIKITVNPESKAVLAGQFVKLCCRATGHPFVQYQWFKMNKEIPNGNTSELIFNAVHVKDAGFYVCRVNNNFTFEFSQWSQLDVCDIPESFQRSVDGVSESKLQICVEPTSQKLMPGSTLVLQCVAVGSPIPHYQWFKNELPLTHETKKLYMVPYVDLEHQGTYWCHVYNDRDSQDSKKVEIIIGRTDEAVECTEDELNNLGHPDNKEQTTDQPLAKDKVALLIGNMNYREHPKLKAPLVDVYELTNLLRQLDFKVVSLLDLTEYEMRNAVDEFLLLLDKGVYGLLYYAGHGYENFGNSFMVPVDAPNPYRSENCLCVQNILKLMQEKETGLNVFLLDMCRKRNDYDDTIPILDALKVTANIVFGYATCQGAEAFEIQHSGLANGIFMKFLKDRLLEDKKITVLLDEVAEDMGKCHLTKGKQALEIRSSLSEKRALTDPIQGTEYSAESLVRNLQWAKAHELPESMCLKFDCGVQIQLGFAAEFSNVMIIYTSIVYKPPEIIMCDAYVTDFPLDLDIDPKDANKGTPEETGSYLVSKDLPKHCLYTRLSSLQKLKEHLVFTVCLSYQYSGLEDTVEDKQEVNVGKPLIAKLDMHRGLGRKTCFQTCLMSNGPYQSSAATSGGAGHYHSLQDPFHGVYHSHPGNPSNVTPADSCHCSRTPDAFISSFAHHASCHFSRSNVPVETTDEIPFSFSDRLRISEK [MALT1]”, the “solubility in G1/S (log2)” value in data set [1] is -0.00137. Also, the results for the melting temperature in data set [2] (cell cycle stage: G1/S) and in data set [2] (cell cycle stage: mitosis) were 49 °C and 49.4 °C, respectively. For the same sequence, in data set [3], the “solubility change mitosis (log2)” value was -0.158. For the same sequence, the thermal stability score turned out to be 0.111 in data set [4] (setting [5]) and 0.543 in data set [4] (cell cycle stage: mitosis).

As for “MSLLLLLLLVSYYVGTLGTHTEIKRVAEEKVTLPCHHQLGLPEKDTLDIEWLLTDNEGNQKVVITYSSRHVYNNLTEEQKGRVAFASNFLAGDASLQIEPLKPSDEGRYTCKVKNSGRYVWSHVILKVLVRPSKPKCELEGELTEGSDLTLQCESSSGTEPIVYYWQRIREKEGEDERLPPKSRIDYNHPGRVLLQNLTMSYSGLYQCTAGNEAGKESCVVRVTVQYVQSIGMVAGAVTGIVAGALLIFLLVWLLIRRKDKERYEEEERPNEIREDAEAPKARLVKPSSSSSGSRSSRSGSSSTRSTANSASRSQRTLSTDAAPQPGLATQAYSLVGPEVRGSEPKKVHHANLTKAETTPSMIPSQSRAFQTV [CLMP]”, the “solubility in G1/S (log2)” value in data set [1] came out at 0.0444. Also, the results for the melting temperature in data set [2] (cell cycle stage: G1/S) and in data set [2] (cell cycle stage: mitosis) were 55 °C and 55.4 °C, respectively. In addition, the “solubility change mitosis (log2)” value in data set [3] is -0.0674. Besides, the values for the thermal stability score in data set [4] (setting [5]) and in data set [4] (cell cycle stage: mitosis) were -1.13 and -0.751, respectively.

With “MSLMVSAGRGLGAVWSPTHVQVTVLQARGLRAKGPGGTSDAYAVIQVGKEKYATSVSERSLGAPVWREEATFELPSLLSSGPAAAATLQLTVLHRALLGLDKFLGRAEVDLRDLHRDQGRRKTQWYKLKSKPGKKDKERGEIEVDIQFMRNNMTASMFDLSMKDKSRNPFGKLKDKIKGKNKDSGSDTASAIIPSTTPSVDSDDESVVKDKKKKSKIKTLLSKSNLQKTPLSQSMSVLPTSKPEKVLLRPGDFQSQWDEDDNEDESSSASDVMSHKRTASTDLKQLNQVNFTLPKKEGLSFLGGLRSKNDVLSRSNVCINGNHVYLEQPEAKGEIKDSSPSSSPSPKGFRKKHLFSSTENLAAGSWKEPAEGGGLSSDRQLSESSTKDSLKSMTLPSYRPAPLVSGDLRENMAPANSEATKEAKESKKPESRRSSLLSLMTGKKDVAKGSEGENPLTVPGREKEGMLMGVKPGEDASGPAEDLVRRSEKDTAAVVSRQGSSLNLFEDVQITEPEAEPESKSEPRPPISSPRAPQTRAVKPRLEVSPEAQPTARLPSPTDSPSSLPPLPSSSGQASVPSELGHGADTQSSESPSVFSSLSSPIAAPISTSTPIESWPLVDRGQAKSEGPPLLPKAELQTESLTPVPNSGSSALGSLFKQPSFPANKGTEDSLMGRTRETGTEKNTSSLELEESLPEQPETGRQEEELPRFPCKKQDYSPSSGEAQEVPFALSLSSDGAVSPVGELAAGGDRDLESQAGSLVESKARDAAEEVAPPLPMGASVPSIDSMMRKLEEMGLNLRKDQKKTKKRVSFSEQLFTEEAVAGAALLVEGHSSCPQELNPAWSVAGNASDGEPPESPHAEDSERESVTTPGPATCGAPASPADHLLLPSQEESFSEVPMSEASSAKDTPLFRMEGEDALVTQYQSKASDHEGLLSDPLSDLQLVSDFKSPIMADLNLSLPSIPEVASDDERIDQVEDDGDQVEDDGETAKSSTLDIGALSLGLVVPCPERGKGPSGEADRLVLGEGLCDFRLQAPQASVTAPSEQTTEFGIHKPHLGKSSSLDKQLPGPSGGEEEKPMGNGSPSPPPGTSLDNPVPSPSPSEIFPVTHSFPSSAHSDTHHTSTAESQKKATAEGSAGRVENFGKRKPLLQAWVSPSETHPVSAQPGAGTGSAKHRLHPVKPMNAMATKVANCSLGTATIISENLNNEVMMKKYSPSDPAFAYAQLTHDELIQLVLKQKETISKKEFQVRELEDYIDNLLVRVMEETPNILRIPTQVGKKAGKM [RAB11FIP1]”, in data set [1], the “solubility in G1/S (log2)” value was 0.306. The melting temperature in data set [2] (cell cycle stage: G1/S) is 51 °C; in data set [2] (cell cycle stage: mitosis) it was 50.1 °C. For the same sequence, the “solubility change mitosis (log2)” value in data set [3] was -0.196. Further, the results for the thermal stability score in data set [4] (setting [5]) and in data set [4] (cell cycle stage: mitosis) were 0.112 and 0.383, respectively.
